T1: flag-tagged mouse LAP (mouse)
T1 construct: also called recombinant mouse latency associated protein (LAP); mouse latency associated peptide
T1 chain: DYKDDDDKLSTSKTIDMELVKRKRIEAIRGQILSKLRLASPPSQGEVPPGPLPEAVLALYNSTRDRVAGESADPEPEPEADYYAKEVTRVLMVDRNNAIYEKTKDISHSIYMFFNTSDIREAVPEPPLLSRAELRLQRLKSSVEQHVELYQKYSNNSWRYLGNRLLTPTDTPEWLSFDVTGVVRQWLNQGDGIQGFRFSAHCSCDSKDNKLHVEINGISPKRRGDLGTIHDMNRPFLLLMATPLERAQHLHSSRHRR


Experiments:
human mature TGF-beta 1 = target: T2, human mature TGF-beta 1 (human, UniProt P01137 279-390); assay: ELISA, plate coated with human mature TGF-beta 1, anti-human IgG-HRP detection
T2 construct: mature
Experimental: (§1) 384-well plate was coated with mouse or human mature TGF-beta 1 for overnight at 4 degree C., and then washed four times with PBS-T. After washing, the plate was blocked with blocking buffer (1×TBS/Tween-20+0.5% BSA+1× Block ace) for at least 1 hour at room temperature, and then washed four times with PBS-T. After washing, an antibody solution was added to the plate and incubated for 2 hours at room temperature, and then washed four times with PBS-T. After washing, diluted secondary antibody (goat anti-human IgG-HRP, Abcam, Cat. ab98624) was added to the plate and incubated for 1 hour at room temperature, and then washed four times with PBS-T. After washing, TMB solution was added to the plate and incubated for 15 minutes at room temperature, then 1N sulfuric acid was added to stop the reaction. The absorbance (optical density; OD) was measured at 450 nm/570 nm.

flag-tagged mouse LAP = target: T1, flag-tagged mouse LAP; assay: ELISA, plate coated with mouse LAP, anti-human IgG-HRP detection
[1] = target: T3, flag-tagged mouse latent TGF-beta 1 (mouse, UniProt P04202 34-390); assay: SPR Biacore 8k, antibody captured by anti-human kappa, latent TGF-beta 1 (SLC) as analyte, 37 C, 1:1 model
T3 construct: also called mouse latent TGF-beta 1 (SLC); mSLC
Experimental: (§2) Mouse anti-human Ig kappa light chain antibody (BD Pharmingen) was immobilized onto all flow cells of a CMS sensor chip using amine coupling kit (GE Healthcare). […] All antibodies and analytes were prepared in ACES pH 7.4 containing 20 mM ACES, 150 mM NaCl, 0.05% Tween 20, 0.005% NaN₃. Assay temperature was set at 37 degrees C. Sensor surface was regenerated each cycle with 10 mM Glycine-HCl, pH2.1. Binding activity was determined by processing and fitting the data to 1:1 binding model using Biacore Insight Software, version 1.1.1.7442 (GE Healthcare).

[2] = target: T4, flag-tagged cynomolgus monkey latent TGF-beta 1 (cynomolgus monkey, UniProt P01137 34-390 (human entry), limits assumed); assay: as above
T4 construct: also called monkey latent TGF-beta 1 (SLC); Cyno latent TGF-beta 1
Experimental: as §2

[3] = target: T5, flag-tagged human latent TGF-beta 1 (human, UniProt P01137 34-390); assay: as above
T5 construct: Small latent complex: homodimer of LAP and mature TGF-beta 1 held non-covalently; also called human latent TGF-beta 1 (SLC); hSLC
Experimental: as §2

mouse mature TGF-beta 1 = target: T6, mouse mature TGF-beta 1 (mouse, UniProt P04202 279-390); assay: ELISA, plate coated with mouse mature TGF-beta 1, anti-human IgG-HRP detection
T6 construct: mature
Experimental: as §1

T2 sequence (P01137 279-390 limits assumed): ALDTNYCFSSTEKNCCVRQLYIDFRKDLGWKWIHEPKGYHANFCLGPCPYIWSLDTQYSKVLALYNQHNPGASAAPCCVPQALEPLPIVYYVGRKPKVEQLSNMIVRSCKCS

| binding result (human mature TGF-beta 1) | binding result (flag-tagged mouse LAP) | Kd [1] | koff [1] | kon [1] | Kd [2] | koff [2] | kon [2] | Kd [3] | koff [3] | kon [3] | binding result (mouse mature TGF-beta 1) | Binder |
| --- | --- | --- | --- | --- | --- | --- | --- | --- | --- | --- | --- | --- |
| no binding (tested: 10 ug/mL) | binds | 1.1 nM | 0.000319 s⁻¹ | 292000 M⁻¹ s⁻¹ | 1 nM | 0.000326 s⁻¹ | 325000 M⁻¹ s⁻¹ | 1.13 nM | 0.00043 s⁻¹ | 381000 M⁻¹ s⁻¹ | no binding (tested: 10 ug/mL) | hT0947AE08-SG191 (antibody, IgG1, V domains shown, Humanized, optimized IgG1; also called hT0947AE08-5G191) VH: QVQLVESGGGVVQPGRSLRLSCAASGFTFSSYAMNWIRQPPGKGLEWIGYIYTSGTRYRANWARGRFTISRDNSKNTLYLQMNSLRAEDTAVYYCARGTDIYDYYYWVMDLWGPGTLVTVSS VL: DIQMTQSPSSLSASVGDRVTITCQASQSISTYLAWYQQKPGQPPKLLIYAASTLESGVPSRFSGSGSGTDFTLTISSLQPEDFATYYCQSYSDGDSVGFGQGTKVEIKR |
| – | binds | 1.89 nM | – | – | – | – | – | – | – | – | no binding (tested: 10 ug/mL) | hT0947AE04-SG191 (antibody, IgG1, V domains shown, Humanized, optimized IgG1) VH: QVQLVESGGGVVQPGRSLRLSCAASGFTFSSYAMNWIRQPPGKGLEWIGYIYTSGTTYHANWARGRFTISRDNSKNTLYLQMNSLRAEDTAVYYCARGTFIWDYYYWVMDLWGPGTLVTVSS VL: DIQMTQSPSSLSASVGDRVTITCQASQSISTYLAWYQQKPGQPPKLLIYKASTLESGVPSRFSGSGSGTDFTLTISSLQPEDFATYYCQSYSDADSVGFGQGTKVEIKR |
| no binding (tested: 10 ug/mL) | binds | 1.6 nM | 0.000388 s⁻¹ | 243000 M⁻¹ s⁻¹ | 2.24 nM | 0.000659 s⁻¹ | 294000 M⁻¹ s⁻¹ | 2.15 nM | 0.000727 s⁻¹ | 339000 M⁻¹ s⁻¹ | no binding (tested: 10 ug/mL) | hT0947AE09-SG191 (antibody, IgG1, V domains shown, Humanized, optimized IgG1; also called hT0947AE09-5G191; hT0947A09-SG191) VH: QVQLVESGGGVVQPGRSLRLSCAASGFTFSSYAMNWIRQPPGKGLEWIGYIYTSGTRYRANWARGRFTISRDNSKNTLYLQMNSLRAEDTAVYYCARGTDIYDYYYWVMDLWGPGTLVTVSS VL: DIQMTQSPSSLSASVGDRVTITCQASQSISTYLAWYQQKPGQPPKLLIYAASTLESGVPSRFSGSGSGTDFTLTISSLQPEDFATYYCQSYSDADSVGFGQGTKVEIKR |
